Sequences and labels used below:
B1: mouse monoclonal antibody #23-57-137-1 (antibody, V domains shown)
VH: EVQLVESGGDLVKPGGSLKLSCAASGFTFSSYGMSWIRQTPDKRLEWVATISSGGSYTYYPDSVKGRFTISRDNAKNTLYLQMSSLKSEDTAMFYCARQTTMTYFAYWGQGTLVTVSA
VL: QLVLTQSSSASFSLGASAKLTCTLSSQHSTYTIEWYQQQPLKPPKYVMDLKQDGSHSTGDGIPDRFSGSSSGADRYLSISNIQPEDEAMYICGVGDTIKEQFVYVFGGGTKVTVLG
notes: Mouse hybridoma antibody; The L chain is a mouse lambda chain; the H chain was cloned with a mouse gamma-1 primer (MHC-G1); also called anti-PTHrP MoAb
B2: humanized #23-57-137-1 antibody with H chain version "a" and L chain version "s" (antibody, V domains shown)
VH: QVQLVESGGGVVQPGRSLRLSCAASGFTFSSYGMSWVRQAPGKGLEWVATISSGGSYTYYPDSVKGRFTISRDNSKNTLYLQMNSLRAEDTAVYYCARQTTMTYFAYWGQGTLVTVSS
VL: QLVLTQSPSASASLGASVKLTCTLSSQHSTYTIEWYQQQPEKGPKYVMDLKQDGSHSTGDGIPDRFSGSSSGAERYLTISSLQSEDEADYICGVGDTIKEQFVYVFGGGTKLTVLG
notes: Human Cγ1 (IgG1) and human lambda C domain; also called hMBC1HcDNA/pCOS1 + hMBC1Lsλ/pCOS1
B3: mouse FR1, 2/human FR3, 4 hybrid antibody (L chain m/hMBC1Ldλ) (antibody, V domains shown)
VH: QVQLVESGGGVVQPGRSLRLSCAASGFTFSSYGMSWVRQAPGKGLEWVATISSGGSYTYYPDSVKGRFTISRDNSKNTLYLQMNSLRAEDTAVYYCARQTTMTYFAYWGQGTLVTVSS
VL: QLVLTQSSSASFSLGASAKLTCTLSSQHSTYTIEWYQQQPLKPPKYVMDLKQDGSHSTGDGIPDRFSGSSSGAERYLTISSLQSEDEADYICGVGDTIKEQFVYVFGGGTKLTVL
notes: Human Cγ1 and human lambda C domain; Expressed in COS-7 cells; also called hMBC1HcDNA/pCOS1 + m/hMBC1Ldλ/neo
B4: humanized #23-57-137-1 antibody with H chain version "a" and L chain version "t" (antibody, IgG1, V domains shown)
VH: QVQLVESGGGVVQPGRSLRLSCAASGFTFSSYGMSWVRQAPGKGLEWVATISSGGSYTYYPDSVKGRFTISRDNSKNTLYLQMNSLRAEDTAVYYCARQTTMTYFAYWGQGTLVTVSS
VL: QLVLTQSPSASASLGASVKLTCTLSSQHSTYTIEWYQQQPEKGPRYVMDLKQDGSHSTGDGIPDRFSGSSSGAERYLTISSLQSEDEADYICGVGDTIKEQFVYVFGGGTKLTVLG
notes: Human Cγ1 (IgG1) and human lambda C domain; Expressed in COS-7 cells; also called hMBC1HcDNA/pCOS1 + hMBC1Ltλ/pCOS1
B5: humanized #23-57-137-1 antibody with H chain version "a" and L chain version "r" (antibody, V domains shown)
VH: QVQLVESGGGVVQPGRSLRLSCAASGFTFSSYGMSWVRQAPGKGLEWVATISSGGSYTYYPDSVKGRFTISRDNSKNTLYLQMNSLRAEDTAVYYCARQTTMTYFAYWGQGTLVTVSS
VL: QLVLTQSPSASASLGASVKLTCTLSSQHSTYTIEWYQQQPEKGPRYLMDLKQDGSHSTGDGIPDRFSGSSSGAERYLTISSLQSEDEADYICGVGDTIKEQFVYVFGGGTKLTVLG
notes: Human Cγ1 (IgG1) and human lambda C domain; also called hMBC1HcDNA + hMBC1Lrλ
B6: humanized #23-57-137-1 antibody with H chain version "a" and L chain version "q" (antibody, IgG1, V domains shown)
VH: QVQLVESGGGVVQPGRSLRLSCAASGFTFSSYGMSWVRQAPGKGLEWVATISSGGSYTYYPDSVKGRFTISRDNSKNTLYLQMNSLRAEDTAVYYCARQTTMTYFAYWGQGTLVTVSS
VL: QLVLTQSPSASASLGASVKLTCTLSSQHSTYTIEWYQQQPEKGPKYLMDLKQDGSHSTGDGIPDRFSGSSSGAERYLTISSLQSEDEADYICGVGDTIKEQFVYVFGGGTKLTVLG
notes: Human Cγ1 (IgG1) and human lambda C domain; also called hMBC1HcDNA + hMBC1Lqλ; FERM BP-5629 / FERM BP-5630
B7: humanized #23-57-137-1 antibody with H chain version "a" and L chain version "l" (antibody, IgG1, V domains shown)
VH: QVQLVESGGGVVQPGRSLRLSCAASGFTFSSYGMSWVRQAPGKGLEWVATISSGGSYTYYPDSVKGRFTISRDNSKNTLYLQMNSLRAEDTAVYYCARQTTMTYFAYWGQGTLVTVSS
VL: QLVLTQSPSASASLGASVKLTCTLSSQHSTYTIEWYQQQPEKGPKYVMDLKQDGSHSTGDGIPDRFSGSSSGAERYLTISSLQSEDEADYYCGVGDTIKEQFVYVFGGGTKLTVLG
notes: Human Cγ1 (IgG1) and human lambda C domain; Expressed in COS-7 cells; also called hMBC1HcDNA/pCOS1 + hMBC1Llλ/pCOS1
B8: human FR1/mouse FR2, 3, 4 hybrid antibody (L chain hmmMBC1L(λ)) (antibody, V domains shown)
VH: QVQLVESGGGVVQPGRSLRLSCAASGFTFSSYGMSWVRQAPGKGLEWVATISSGGSYTYYPDSVKGRFTISRDNSKNTLYLQMNSLRAEDTAVYYCARQTTMTYFAYWGQGTLVTVSS
VL: QLVLTQSPSASASLGASVKLTCTLSSQHSTYTIEWYQQQPLKPPKYVMDLKQDGSHSTGDGIPDRFSGSSSGADRYLSISNIQPEDEAMYICGVGDTIKEQFVYVFGGGTKVTVL
notes: Human Cγ1 and human lambda C domain; Expressed in COS-7 cells; also called hMBC1HcDNA/pCOS1 + hmmMBC1L(λ)/neo
B9: antibody in which humanized H chain version "a" was combined with a chimera L chain (antibody, V domains shown)
VH: QVQLVESGGGVVQPGRSLRLSCAASGFTFSSYGMSWVRQAPGKGLEWVATISSGGSYTYYPDSVKGRFTISRDNSKNTLYLQMNSLRAEDTAVYYCARQTTMTYFAYWGQGTLVTVSS
VL: QLVLTQSSSASFSLGASAKLTCTLSSQHSTYTIEWYQQQPLKPPKYVMDLKQDGSHSTGDGIPDRFSGSSSGADRYLSISNIQPEDEAMYICGVGDTIKEQFVYVFGGGTKVTVLG
notes: H chain has human Cγ1; also called humanized H chain version a + chimera L chain
B10: humanized #23-57-137-1 antibody with H chain version "a" and L chain version "j" (antibody, IgG1, V domains shown)
VH: QVQLVESGGGVVQPGRSLRLSCAASGFTFSSYGMSWVRQAPGKGLEWVATISSGGSYTYYPDSVKGRFTISRDNSKNTLYLQMNSLRAEDTAVYYCARQTTMTYFAYWGQGTLVTVSS
VL: QLVLTQSPSASASLGASVKLTCTLSSQHSTYTIEWYQQQPEKGPKYLMDLKQDGSHSTGDGIPDRFSGSSSGAERYLTISSLQSEDEADYYCGVGDTIKEQFVYVFGGGTKLTVLG
notes: Human Cγ1 (IgG1) and human lambda C domain; Expressed in COS-7 cells; also called hMBC1HcDNA/pCOS1 + hMBC1Ljλ/pCOS1
B11: humanized #23-57-137-1 antibody with H chain version "a" and L chain version "o" (antibody, IgG1, V domains shown)
VH: QVQLVESGGGVVQPGRSLRLSCAASGFTFSSYGMSWVRQAPGKGLEWVATISSGGSYTYYPDSVKGRFTISRDNSKNTLYLQMNSLRAEDTAVYYCARQTTMTYFAYWGQGTLVTVSS
VL: QLVLTQSPSASASLGASVKLTCTLSSQHSTYTIEWYQQQPEKGPRYVMDLKQDGSHSTGDGIPDRFSGSSSGAERYLTISSLQSEDEADYYCGVGDTIKEQFVYVFGGGTKLTVLG
notes: Human Cγ1 (IgG1) and human lambda C domain; Expressed in COS-7 cells; also called hMBC1HcDNA/pCOS1 + hMBC1Loλ/pCOS1
B12: humanized #23-57-137-1 antibody with H chain version "a" and L chain version "m" (antibody, IgG1, V domains shown)
VH: QVQLVESGGGVVQPGRSLRLSCAASGFTFSSYGMSWVRQAPGKGLEWVATISSGGSYTYYPDSVKGRFTISRDNSKNTLYLQMNSLRAEDTAVYYCARQTTMTYFAYWGQGTLVTVSS
VL: QLVLTQSPSASASLGASVKLTCTLSSQHSTYTIEWYQQQPEKGPRYLMDLKQDGSHSTGDGIPDRFSGSSSGAERYLTISSLQSEDEADYYCGVGDTIKEQFVYVFGGGTKLTVLG
notes: Human Cγ1 (IgG1) and human lambda C domain; Expressed in COS-7 cells; also called hMBC1HcDNA/pCOS1 + hMBC1Lmλ/pCOS1
B13: mouse FR1, 2/human FR3, 4 hybrid antibody (L chain m/hMBC1Laλ) (antibody, V domains shown)
VH: QVQLVESGGGVVQPGRSLRLSCAASGFTFSSYGMSWVRQAPGKGLEWVATISSGGSYTYYPDSVKGRFTISRDNSKNTLYLQMNSLRAEDTAVYYCARQTTMTYFAYWGQGTLVTVSS
VL: QLVLTQSSSASFSLGASAKLTCTLSSQHSTYTIEWYQQQPLKPPKYVMDLKQDGSHSTGDGIPDRFSGSSSGAERYLTISSLQSEDEADYYCGVGDTIKEQFVYVFGGGTKLTVL
notes: Human Cγ1 and human lambda C domain; Expressed in COS-7 cells; also called hMBC1HcDNA/pCOS1 + m/hMBC1Laλ/neo
B14: chimera #23-57-137-1 antibody with human L chain lambda chain C domain (antibody, IgG1, V domains shown)
VH: EVQLVESGGDLVKPGGSLKLSCAASGFTFSSYGMSWIRQTPDKRLEWVATISSGGSYTYYPDSVKGRFTISRDNAKNTLYLQMSSLKSEDTAMFYCARQTTMTYFAYWGQGTLVTVSA
VL: QLVLTQSSSASFSLGASAKLTCTLSSQHSTYTIEWYQQQPLKPPKYVMDLKQDGSHSTGDGIPDRFSGSSSGADRYLSISNIQPEDEAMYICGVGDTIKEQFVYVFGGGTKVTVLG
notes: Expressed in COS-7 cells; also called chimeric antibody; MBC1HcDNA/pCOS1 + MBC1L(λ)/neo
B15: chimera #23-57-137-1 antibody with human L chain kappa chain C domain (antibody, IgG1, V domains shown)
VH: EVQLVESGGDLVKPGGSLKLSCAASGFTFSSYGMSWIRQTPDKRLEWVATISSGGSYTYYPDSVKGRFTISRDNAKNTLYLQMSSLKSEDTAMFYCARQTTMTYFAYWGQGTLVTVSA
VL: QLVLTQSSSASFSLGASAKLTCTLSSQHSTYTIEWYQQQPLKPPKYVMDLKQDGSHSTGDGIPDRFSGSSSGADRYLSISNIQPEDEAMYICGVGDTIKEQFVYVFGGGTKVTVLG
notes: Mouse V domains joined to human Cγ1 (IgG1) and to the human kappa C domain (from plasmid HEF-PM1k-gk); Expressed in COS-7 cells; also called chimeric antibody; MBC1HcDNA/pCOS1 + MBC1L(κ)/neo

The first test has as its target T1, human PTHrP (1-34) (human).
T1 construct: Synthetic peptide (Peninsula / Peptide Research Institute); coated on ELISA plates at 1 ug/ml; also called parathyroid hormone related peptide (1-34)
The test can be described thus: solid phase RIA of hybridoma culture supernatant.
Experimental: Screening of hybridomas was performed by measuring and selecting the existence of a PTHrP recognizing antibody by applying solid phase RIA method to the culture supernatant of the wells where growth was recognized in HAT culture medium.
For B1, the binding result is listed as “binds”.

The target in another test is T1, human PTHrP (1-34). Briefly: ELISA on plate coated with human PTHrP (1-34). Background: An ELISA detects its analyte on a solid surface through an enzyme-linked reagent.
Experimental: The ELISA plate for antigen binding measurement was prepared as follows. Each well of a 96 well plate for ELISA was coated with 100 μl of human PTHrP(1-34) (Peptide Research Institute) adjusted to 1 μg/ml concentration by the coating buffer. […] After the plate was incubated at room temperature and washed with PBS-Tween20, 100 μl of alkaline phosphatase (TAGO) conjugated goat anti-man IgG antibody was added. After the plate was incubated at room temperature and washed with PBS-Tween20, 1 mg/ml of a substrate solution (Sigma104, p-nitrophenylphosphate, SIGMA) was added, and, next, 405 nm absorption was measured with a micro plate reader (Bio Rad).
The ELISA plate for antigen binding measurement was prepared as follows. Each well of a 96 well plate for ELISA was coated with 100 μl of human PTHrP(1-34) adjusted to 1 μg/ml concentration by the coating buffer. After blocking with 200 μl of the dilution buffer, the culture supernatant of the COS-7 cells in which hybrid antibody or humanized antibody was expressed or the purified hybrid antibody or the humanized antibody was stepwise diluted and added to each well. After the plate was incubated at room temperature and washed with PBS-Tween20, 100 μl of alkaline phosphatase (TAGO) conjugated goat anti-man IgG antibody was added. After the plate was incubated at room temperature and washed with PBS-Tween20, 1 mg/ml of a substrate solution (Sigma104, p-nitrophenylphosphate, SIGMA) was added, and 405 nm absorption was then measured on a micro plate reader (Bio Rad).
Regarding B2, the binding result is “binds”.

On to B3, for which the binding result is on record as “binds”.

Regarding B4, the binding result is on record as “binds”.

Take B5: the binding result is listed as “binds”. Turning to B6, the binding result is on record as “binds”. On the same count and under the same terms, then B7, with “binds”; and B8, with “binds”; and B9, with “binds”. On the same count and under the same terms, under B10 stands “binds”; under B11, “binds”. On the same count and under the same terms, then B12, with “binds”; and B13, with “binds”; and B14, with “binds”. On to B15, for which the binding result is “binds”.

The values are drawn from US20070053905A1 (Chugai, published 2007).
